# Experiments:
# [1] = target: human CD7, full length, on cells (human) (UniProt P09564); experiment: flow cytometry, control IgG on Jurkat cells (express CD7), non-blocked
# [2] = target: human CD7, full length, on cells (human) (UniProt P09564); experiment: flow cytometry, control IgG staining of Jurkat cells (express CD7), non-blocked
# [3] = target: human CD7, full length, on cells (human) (UniProt P09564); experiment: flow cytometry, antibody staining of Jurkat cells preincubated with HuK12-Fc (competitor)
# [4] = target: human CD7, full length, on cells (human) (UniProt P09564); experiment: flow cytometry, antibody staining of Jurkat cells (express CD7), non-blocked
# [5] = target: human CD7, full length, on cells (human) (UniProt P09564); experiment: flow cytometry, control Fc on Jurkat cells (express CD7), non-blocked
# Chain of human CD7, full length, on cells (human) (P09564 26-240 limits assumed): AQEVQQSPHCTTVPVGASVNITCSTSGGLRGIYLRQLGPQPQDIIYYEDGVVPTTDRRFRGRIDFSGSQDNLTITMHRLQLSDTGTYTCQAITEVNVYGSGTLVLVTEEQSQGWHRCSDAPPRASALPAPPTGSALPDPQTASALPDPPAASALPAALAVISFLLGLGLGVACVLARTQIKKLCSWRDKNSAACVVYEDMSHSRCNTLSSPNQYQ
Substance,% Positive Cells [1],MFI [1],% Positive Cells [2],MFI [2],% Positive Cells [3],MFI [3],% Positive Cells [4],MFI [4],% Positive Cells [5],MFI [5]
IgG Control (antibody),3.6%,17,3%,18,,,,,,
anti-human CD7 monoclonal antibody Clone 8118.1 (Immunotech),,,,,8%,24,78%,27,,
"anti-human CD7 monoclonal antibody Clone CLB-3A1 (Research Diagnostics, Inc.)",,,,,63%,24,80%,30,,
Control Fc (Fc fusion),,,,,,,,,3.4%,18
anti-human CD7 monoclonal antibody Clone 4H9 (Pharmingen),,,,,4%,19,88%,38,,
"anti-human CD7 monoclonal antibody Clone RFT-2a (Research Diagnostics, Inc.)",,,,,9%,18,71%,23,,
anti-human CD7 monoclonal antibody Clone M-T701 (Becton Dickinson),,,,,12%,19,78%,27,,
"anti-human CD7 monoclonal antibody Clone WM31 (Research Diagnostics, Inc.)",,,,,11%,18,62%,22,,
